Experimental data: US20090081786A1 (published 2009)

B1: ε-V1 (V1 region of ε-PKC) (other)
chain: MVVFNGLLKIKICEAVSLKPTAWSLRHAVGPRPQTFLLDPYIALNVDDSRIGQTATKQKTNSPAWHDEFVTDVCNGRKIELAVFHDAPIGYDDFVANCTIQFEELLQNGSRHFEDWIDLEPEGKVYVIIDLSGSSGEAPKDNEE
B2: glutathione-S-transferase-delta V5 PKC fusion protein (other)
chain: PKVKSPSDYSNFDPEFLNEKPQLSFSDKNLIDSMDQEAFHGFSFVNPKFEQFLDI
notes: Used as crude bacterial cell lysate (30 µg) containing the fusion protein; also called GST-δV5; δ-V5; not shown: glutathione-S-transferase (GST) fusion tag
B3: myelin basic protein (MBP)-delta V1 PKC fusion protein (other)
chain: MAPFLRISFNSYELGSLQAEDDASQPFCAVKMKEALTTDRGKTLVQKKPTMYPEWKSTFDAHIYEGRVIQIVLMRAAEDPMSEVTVGVSVLAERCKKNNGKAEFWLDLQPQAKVLMCVQYFLEDGDCKQSMRSEEEAMFPTMNRRGAIKQAKIHYIKNHE
notes: Used as crude bacterial cell lysate (30 µg) containing the fusion protein; also called MBP-δV1; δ-V1; not shown: fusion tag printed as 'myelin basic protein (MBP)'
B4: annexin V (other)
chain: AQVLRGTVTDFPGFDERADAETLRKAMKGLGTDEESILTLLTSRSNAQRQEISAAFKTLFGRDLLDDLKSELTGKFEKLIVALMKPSRLYDAYELKHALKGAGTNEKVLTEIIASRTPEELRAIKQVYEEEYGSSLEDDVVGDTSGYYQRMLVVLLQANRDPDAGIDEAQVEQDAQALFQAGELKWGTDEEKFITIFGTRSVSHLRKVFDKYMTISGFQIEETIDRETSGNLEQLLLAVVKSIRSIPAYLAETLYYAMKGAGTDDHTLIRVMVSRSEIDLFNIRKEFRKNFATSLYSMIKGDTSGDYKKALLLLCGEDD
notes: 10 µg annexin V was run on SDS-PAGE, blotted to nitrocellulose and used as the immobilized partner in the overlay assay; also called immobilized annexin V

Key:
annexin V [1] = molecular target: B4; assay: overlay assay on annexin V blotted to nitrocellulose, FIG. 1D
Procedure: (§1) The strips were incubated with blocking buffer (50 mM Tris pH 7.5, 200 mM NaCl, 3% bovine serum albumin, 0.1% PEG20). […] The strips where then washed with wash buffer (50 mM Tris pH 7.5, 200 mM NaCl, 0.1% PEG20, 12 mM β-mercaptoethanol), and then incubated with fixative (0.2% formaldehyde in PBS) and neutralizing solution (0.2M glycine in PBS) at room temperature 20 min each. After washing with buffer, the strips were probed with antibodies according to the overlay protein, and resulting bands were visualized using ECL Western blotting.

annexin V [2] = molecular target: B4; assay: overlay assay on blotted annexin V, FIG. 1D
Procedure: as §1

annexin V [3] = molecular target: B4; assay: overlay assay on blotted annexin V (figure legend, FIGS. 1A-D)
Procedure: as §1

full-length δ-PKC = molecular target: T1, full-length δ-PKC (Mus musculus (Mouse), UniProt P28867 1-674); assay: as above
T1 construct: Full-length δ-PKC in the overlay assay; also called δ-protein kinase C; delta PKC
Procedure: as §1

Binder: B1
binding result (annexin V [1]): no binding

Binder: B2
binding result (annexin V [2]): binds

Binder: B3
binding result (annexin V [3]): binds

Binder: B4
binding result (full-length δ-PKC): binds
